Test results from paper PMC9436968, “Crosstalk between SUMOylation and ubiquitylation controls DNA end resection by maintaining MRE11 homeostasis on chromatin” (Nature Communications, 2022).

Assays:
[1] = target: T1, Flag-4KR (complexed with RAD50) (UniProt P49959 1-708; Q92878 1-1312, K255R | K384R | K416R | K467R); assay: pull-down; purified proteins incubated in T50 buffer (25 mM Tris-HCl pH 7.5, 10% glycerol, 0.5 mM EDTA, 50 mM KCl, 1 mM DTT, 0.01% Igepal) on ice for 2 h, pulled down by anti-Flag M2 beads; supernatant and eluate immunoblotted; conditions: both partners purified
T1 construct: MRE11 with the four lysine-to-arginine mutations (4KR); RAD50, His-tagged, as in the MRE11/RAD50 complex; also called MRE11 4KR mutant; SUMOylation-deficient MRE11; source: purified, complexed with RAD50; the host is told for the MRE11/RAD50 complex: yeast

[2] = target: T2, Flag-WT-MRE11 (complexed with RAD50) (UniProt P49959 1-708; Q92878 1-1312); assay: as above; conditions: both partners purified
T2 construct: MRE11, Flag-tagged, in the pESC-URA vector; RAD50, His-tagged, in the pESC-URA vector; The results call it Flag-MRE11; also called MRE11/RAD50 complex; Flag-MRE11; source: protease-deficient yeast strain, co-expressed, purified (Ni-NTA, anti-Flag M2 beads)
T2 sequence (P49959 whole entry, chain 1 of 2): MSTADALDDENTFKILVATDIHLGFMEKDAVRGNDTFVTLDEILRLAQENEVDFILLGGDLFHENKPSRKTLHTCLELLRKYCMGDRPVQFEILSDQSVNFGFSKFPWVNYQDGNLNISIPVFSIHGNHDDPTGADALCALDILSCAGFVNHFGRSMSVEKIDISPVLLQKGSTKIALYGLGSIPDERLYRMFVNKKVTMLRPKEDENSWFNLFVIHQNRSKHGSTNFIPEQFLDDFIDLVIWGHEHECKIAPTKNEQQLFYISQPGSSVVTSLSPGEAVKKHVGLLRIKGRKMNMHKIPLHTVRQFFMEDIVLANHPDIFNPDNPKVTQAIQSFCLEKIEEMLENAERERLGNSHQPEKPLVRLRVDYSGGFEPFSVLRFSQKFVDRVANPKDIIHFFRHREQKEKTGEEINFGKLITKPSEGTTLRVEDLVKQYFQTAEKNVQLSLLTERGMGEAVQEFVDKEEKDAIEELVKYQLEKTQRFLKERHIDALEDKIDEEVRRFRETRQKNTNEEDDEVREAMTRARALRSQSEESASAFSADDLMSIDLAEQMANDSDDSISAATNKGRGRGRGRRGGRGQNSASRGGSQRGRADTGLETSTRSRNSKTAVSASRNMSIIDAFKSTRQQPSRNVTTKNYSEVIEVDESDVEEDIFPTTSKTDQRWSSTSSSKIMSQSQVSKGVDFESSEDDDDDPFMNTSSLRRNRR
T2 sequence (Q92878 whole entry, chain 2 of 2): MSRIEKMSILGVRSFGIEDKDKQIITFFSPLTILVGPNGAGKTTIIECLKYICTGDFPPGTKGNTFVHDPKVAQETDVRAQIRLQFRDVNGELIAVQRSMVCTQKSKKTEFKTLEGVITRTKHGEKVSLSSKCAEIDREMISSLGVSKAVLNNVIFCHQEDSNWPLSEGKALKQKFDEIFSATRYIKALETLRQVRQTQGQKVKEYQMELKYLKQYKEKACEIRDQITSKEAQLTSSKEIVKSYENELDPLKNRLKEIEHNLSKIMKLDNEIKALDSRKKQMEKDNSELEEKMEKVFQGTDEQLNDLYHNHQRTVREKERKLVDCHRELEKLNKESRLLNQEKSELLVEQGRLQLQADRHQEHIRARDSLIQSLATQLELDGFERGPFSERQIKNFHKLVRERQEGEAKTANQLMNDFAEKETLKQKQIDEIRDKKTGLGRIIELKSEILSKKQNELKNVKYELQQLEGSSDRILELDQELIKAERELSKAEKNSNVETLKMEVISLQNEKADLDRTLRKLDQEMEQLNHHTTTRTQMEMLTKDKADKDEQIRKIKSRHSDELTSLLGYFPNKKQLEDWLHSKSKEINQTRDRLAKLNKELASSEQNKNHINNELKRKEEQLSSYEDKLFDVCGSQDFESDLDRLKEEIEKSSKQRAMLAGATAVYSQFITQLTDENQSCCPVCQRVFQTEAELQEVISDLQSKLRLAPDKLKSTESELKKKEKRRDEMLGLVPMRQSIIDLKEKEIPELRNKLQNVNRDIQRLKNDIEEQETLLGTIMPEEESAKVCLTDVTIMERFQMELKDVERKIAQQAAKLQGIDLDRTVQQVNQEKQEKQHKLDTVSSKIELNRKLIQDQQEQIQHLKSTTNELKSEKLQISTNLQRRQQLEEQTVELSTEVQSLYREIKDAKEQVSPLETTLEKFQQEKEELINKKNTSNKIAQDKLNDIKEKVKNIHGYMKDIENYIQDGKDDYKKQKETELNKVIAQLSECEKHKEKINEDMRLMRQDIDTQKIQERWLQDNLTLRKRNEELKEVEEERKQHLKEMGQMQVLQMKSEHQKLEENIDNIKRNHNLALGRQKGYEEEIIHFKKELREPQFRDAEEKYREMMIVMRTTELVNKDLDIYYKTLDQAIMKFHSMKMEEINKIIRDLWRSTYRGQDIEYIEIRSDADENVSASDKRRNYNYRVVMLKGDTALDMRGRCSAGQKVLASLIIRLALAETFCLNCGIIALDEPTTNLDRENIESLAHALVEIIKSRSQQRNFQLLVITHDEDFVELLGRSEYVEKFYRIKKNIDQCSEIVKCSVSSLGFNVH

T1 sequence (P49959 whole entry K255R/K384R/K416R/K467R, chain 1 of 2): as the sequence (P49959 whole entry, chain 1 of 2) above, with K255R, K384R, K416R, K467R counted along it
T1 sequence (Q92878 whole entry, chain 2 of 2): as the sequence (Q92878 whole entry, chain 2 of 2) above

B1: MBP-NBS1 (natural protein, UniProt O60934 1-754, looked up)
chain: MWKLLPAAGPAGGEPYRLLTGVEYVVGRKNCAILIENDQSISRNHAVLTANFSVTNLSQTDEIPVLTLKDNSKYGTFVNEEKMQNGFSRTLKSGDGITFGVFGSKFRIEYEPLVACSSCLDVSGKTALNQAILQLGGFTVNNWTEECTHLVMVSVKVTIKTICALICGRPIVKPEYFTEFLKAVESKKQPPQIESFYPPLDEPSIGSKNVDLSGRQERKQIFKGKTFIFLNAKQHKKLSSAVVFGGGEARLITEENEEEHNFFLAPGTCVVDTGITNSQTLIPDCQKKWIQSIMDMLQRQGLRPIPEAEIGLAVIFMTTKNYCDPQGHPSTGLKTTTPGPSLSQGVSVDEKLMPSAPVNTTTYVADTESEQADTWDLSERPKEIKVSKMEQKFRMLSQDAPTVKESCKTSSNNNSMVSNTLAKMRIPNYQLSPTKLPSINKSKDRASQQQQTNSIRNYFQPSTKKRERDEENQEMSSCKSARIETSCSLLEQTQPATPSLWKNKEQHLSENEPVDTNSDNNLFTDTDLKSIVKNSASKSHAAEKLRSNKKREMDDVAIEDEVLEQLFKDTKPELEIDVKVQKQEEDVNVRKRPRMDIETNDTFSDEAVPESSKISQENEIGKKRELKEDSLWSAKEISNNDKLQDDSEMLPKKLLLTEFRSLVIKNSTSRNPSGINDDYGQLKNFKKFKKVTYPGAGKLPHIIGGSDLIAHHARKNTELEEWLRQEMEVQNQHAKEESLADDLFRYNPYLKRRR
notes: NBS1, MBP- and His-tagged, in the pFastBac vector; also called MBP- and His-tagged NBS1; source: High Five cells (baculovirus), purified (amylose beads, Ni-NTA)
B1: binds [1]; binds [2].
